Laboratory results as given in patent publication US20170037117A1, “COMPOSITIONS AND METHODS FOR TREATING METABOLIC DISORDERS” (Salk Institute for Biological Studies, priority 2014, published 2017).

Molecular target: T1, human α-CGRP (Homo sapiens, UniProt P06881)
T1 construct: 1-37 (WT); purchased GenScript Corporation or Global Peptide Services
T1 sequence (P06881 83-119 limits assumed): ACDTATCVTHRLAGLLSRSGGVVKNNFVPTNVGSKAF
Assay: Biacore affinity of G1 Fab and variants to human α-CGRP
Format: binding
Conditions: 37° C.; Fab fragments; screening mode except underlined values (G1 high-resolution mode)
Protocol: Biacore assay for affinity determination. […] All Biacore assays were conducted in HBS-EP running buffer (10 mM HEPES pH 7.4, 150 mM NaCl, 3 mM EDTA, 0.005% v/v polysorbate P20). CGRP surfaces were prepared by diluting the N-biotinylated CGRP to a concentration of less than 0.001 mg/mL into HBS-EP buffer and injecting it across the SA sensor chip using variable contact times. Low capacity surfaces, corresponding to capture levels <50 response units (RU) were used for high-resolution kinetic studies, whereas high capacity surfaces (about 800 RU of captured CGRP) were used for concentration studies, screening, and solution affinity determinations. […] Samples were typically injected for 1 minute at 100 μL/min and dissociation times of at least 10 minutes were allowed. After each binding cycle, surfaces were regenerated with 25 mM NaOH in 25% v/v ethanol, which was tolerated over hundreds of cycles. […]
High-resolution analysis of binding interactions with extremely slow offrates. […] The association rate constant (kon) was determined by injecting a 2-fold titration series (in duplicate) spanning 550 nM-1 nM for 30 sec at 100 uL/min and allowing only a 30 sec dissociation phase. The dissociation rate constant (koff) was determined by injecting three concentrations (high, medium, and low) of the same titration series in duplicate for 30 sec and allowing a 2-hour dissociation phase. […]

- α-human koff: 0.00014 s⁻¹
B1: M25: G1 variant: L1 R28N; HC-FW3 L99T A100V (antibody, V domains shown)
VH: EVQLVESGGGLVQPGGSLRLSCAASGFTFSNYWISWVRQAPGKGLEWVAEIRSESDASATHYAEAVKGRFTISRDNAKNSLYLQMNSLRAEDTAVYYCTVYFDYGLAIQNYWGQGTLVTVSS
VL: EIVLTQSPATLSLSPGERATLSCKASKNVTTYVSWYQQKPGQAPRLLIYGASNRYLGIPARFSGSGSGTDFTLTISSLEPEDFAVYYCSQSYNYPYTFGQGTKLEIK
